Laboratory results taken from the supplement of paper PMC10724198.
± gives the standard deviation of the averaged measurements.

Assays:
Saccharomyces cerevisiae [1] = assay: protein stability index of tFT-peptide fusion (C-terminal peptide) (PSI (0-1 scale)); higher = more stable (slower turnover)
Experimental: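 MPS profiling in S. cerevisiae of the tFT-X12 degron library: putative degron peptides plus stable controls, 12 aa, fused to the C-terminus of a sfGFP-mCherry timer. Cells are FACS-sorted into 8 mCherry/sfGFP bins and deep-sequenced. PSI runs from 0 (unstable) to 1 (stable). Backgrounds are wild type, das1Δ and doa10Δ at 30 °C, and wild type, das1Δ, cdc34-1 and cdc53-1 at 37 °C; 2-3 technical replicates each.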

Saccharomyces cerevisiae [2] = assay: as above; details: genetic background: wild type; temperature: 30 C
[3] = genetic background: cdc34-1, temperature: 37 C
[4] = genetic background: cdc53-1, temperature: 37 C
[5] = genetic background: das1 deletion, temperature: 30 C
[6] = genetic background: das1 deletion, temperature: 37 C
[7] = genetic background: doa10 deletion, temperature: 30 C
[8] = genetic background: wild type, temperature: 30 C
[9] = genetic background: wild type, temperature: 37 C
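Note: PSI is a weighted mean of sequencing reads over stability bins, variants kept only with over 10 reads, mCherry proximal and sfGFP distal, peptide attached via GGGS linker.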

Sequence | protein stability index (Saccharomyces cerevisiae [1]; [3]) | protein stability index (Saccharomyces cerevisiae [1]; [4]) | protein stability index (Saccharomyces cerevisiae [1]; [5]) | protein stability index (Saccharomyces cerevisiae [1]; [6]) | protein stability index (Saccharomyces cerevisiae [1]; [7]) | protein stability index (Saccharomyces cerevisiae [1]; [8]) | protein stability index (Saccharomyces cerevisiae [1]; [9]) | protein stability index (Saccharomyces cerevisiae [2])
GRRPVVDFLPCL | 0.692 ± 0.045 | 0.7222 ± 0.004 | 0.697 ± 0.029 | 0.745 ± 0.009 | 0.7146 ± 0.0027 | 0.719 ± 0.037 | 0.742 ± 0.023 | 0.736 ± 0.0074
WFSVFTMSILSR | 0.416 ± 0.026 | 0.479 ± 0.0075 | 0.338 ± 0.028 | 0.4963 ± 0.0024 | 0.334 ± 0.004 | 0.341 ± 0.018 | 0.474 ± 0.01 | 0.435 ± 0.0096
WGIPRRPTLFIP | 0.65 ± 0.0098 | 0.749 ± 0.03 | 0.658 ± 0.011 | 0.7417 ± 0.00092 | 0.296 ± 0.023 | 0.325 ± 0.035 | 0.5193 ± 0.0044 | 0.434 ± 0.015
CAGRQGRERGHT | 0.694 ± 0.03 | 0.7217 ± 0.0042 | 0.658 ± 0.043 | 0.722 ± 0.016 | 0.63499 ± 0.00057 | 0.658 ± 0.013 | 0.717 ± 0.036 | 0.695 ± 0.011
FQPLELFFVCVF | 0.0866 ± 0.04 | 0.154 ± 0.025 | 0.199 ± 0.02 | 0.235 ± 0.014 | 0.163 ± 0.014 | 0.181 ± 0.023 | 0.212 ± 0.016 | 0.305 ± 0.014
FYPLPASIPDFA | 0.695 ± 0.025 | 0.7541 ± 0.0025 | 0.67 ± 0.017 | 0.74197 ± 5.2e-05 | 0.675 ± 0.022 | 0.6686 ± 0.0026 | 0.72 ± 0.011 | 0.7216 ± 0.0018
GGVWSAFAVWVC | 0.188 ± 0.0039 | 0.338 ± 0.027 | 0.288 ± 0.025 | 0.446 ± 0.0074 | 0.0761 ± 0.0025 | 0.0784 ± 0.013 | 0.0546 ± 0.014 | 0.133 ± 0.0023
PLPSRAPVQFLL | 0.624 ± 0.012 | 0.754 ± 0.017 | 0.643 ± 0.029 | 0.727 ± 0.0097 | 0.1719 ± 0.0011 | 0.199 ± 0.019 | 0.3725 ± 0.00074 | 0.319 ± 0.021
PLVLPPINLFLV | 0.575 ± 0.071 | 0.729 ± 0.025 | 0.63 ± 0.017 | 0.7373 ± 0.0008 | 0.0842 ± 0.029 | 0.114 ± 0.019 | 0.136 ± 0.021 | 0.189 ± 0.0031
WVYVFVSLFFVV | 0.185 ± 0.0071 | 0.2552 ± 0.0011 | 0.204 ± 0.029 | 0.347 ± 0.013 | 0.196 ± 0.017 | 0.17 ± 0.018 | 0.289 ± 0.0062 | 0.263 ± 0.0029
LSVYFSLSLCVS | 0.363 ± 0.014 | 0.451 ± 0.0063 | 0.384 ± 0.025 | 0.462 ± 0.011 | 0.392 ± 0.0084 | 0.399 ± 0.017 | 0.429 ± 0.017 | 0.448 ± 0.02
LCSYSTIPLRLY | 0.619 ± 0.034 | 0.726 ± 0.013 | 0.614 ± 0.019 | 0.695 ± 0.022 | 0.188 ± 0.0019 | 0.231 ± 0.021 | 0.48 ± 0.013 | 0.329 ± 0.035
VWFFLLSFANRL | 0.4767 ± 0.0035 | 0.5386 ± 0.004 | 0.465 ± 0.043 | 0.517 ± 0.0083 | 0.466 ± 0.029 | 0.45 ± 0.0099 | 0.4845 ± 0.00053 | 0.476 ± 0.015
SSLLPLLAQLVG | 0.594 ± 0.046 | 0.7484 ± 0.0013 | 0.581 ± 0.05 | 0.68255 ± 0.00041 | 0.252 ± 0.014 | 0.265 ± 0.039 | 0.411 ± 0.01 | 0.406 ± 0.05
FLVPLSPMLLSA | 0.446 ± 0.011 | 0.451 ± 0.005 | 0.375 ± 0.031 | 0.4942 ± 0.0011 | 0.323 ± 0.012 | 0.347 ± 0.019 | 0.463 ± 0.014 | 0.4 ± 0.019
RVGGVVVLGCVG | 0.645 ± 0.03 | 0.711 ± 0.02 | 0.549 ± 0.013 | 0.684 ± 0.02 | 0.555 ± 0.027 | 0.5598 ± 0.0053 | 0.67072 ± 0.0004 | 0.476 ± 0.0028
FNLFWPVSAFVV | 0.506 ± 0.061 | 0.563 ± 0.011 | 0.436 ± 0.03 | 0.5749 ± 0.0047 | 0.211 ± 0.0037 | 0.254 ± 0.0078 | 0.398 ± 0.044 | 0.374 ± 0.019
FLIYMFRHCFFH | 0.537 ± 0.071 | 0.626 ± 0.034 | 0.593 ± 0.015 | 0.676 ± 0.039 | 0.268 ± 0.013 | 0.278 ± 0.028 | 0.393 ± 0.018 | 0.345 ± 0.029
PLLPPLSTPPPA | 0.69 ± 0.0086 | 0.732 ± 0.023 | 0.663 ± 0.015 | 0.739 ± 0.011 | 0.669 ± 0.022 | 0.677 ± 0.013 | 0.6983 ± 0.0039 | 0.385 ± 0.062
LRLLSLIPPLSC | 0.494 ± 0.022 | 0.535 ± 0.05 | 0.381 ± 0.039 | 0.53 ± 0.016 | 0.34 ± 0.011 | 0.385 ± 0.026 | 0.52 ± 0.011 | 0.467 ± 0.0065

Sequence | protein stability index (Saccharomyces cerevisiae [1]; [3]) | protein stability index (Saccharomyces cerevisiae [1]; [4]) | protein stability index (Saccharomyces cerevisiae [1]; [5]) | protein stability index (Saccharomyces cerevisiae [1]; [6]) | protein stability index (Saccharomyces cerevisiae [1]; [7]) | protein stability index (Saccharomyces cerevisiae [1]; [8]) | protein stability index (Saccharomyces cerevisiae [1]; [9]) | protein stability index (Saccharomyces cerevisiae [2])
KSEKTYTYQVIQ | 0.682 ± 0.022 | 0.749 ± 0.027 | 0.622 ± 0.023 | 0.7159 ± 0.0055 | 0.329 ± 0.031 | 0.37 ± 0.027 | 0.5757 ± 0.005 | 0.453 ± 0.0059
VFLVRTVTQISA | 0.289 ± 0.02 | 0.371 ± 0.033 | 0.291 ± 0.025 | 0.445 ± 0.015 | 0.219 ± 0.0079 | 0.254 ± 0.028 | 0.397 ± 0.016 | 0.304 ± 0.017
AFFLLVSLLVSP | 0.0637 ± 0.025 | 0.0989 ± 0.021 | 0.122 ± 0.046 | 0.219 ± 0.0041 | 0.0944 ± 0.0098 | 0.132 ± 0.041 | 0.186 ± 0.0021 | 0.204 ± 0.097
WVIWFFVAACLR | 0.219 ± 0.006 | 0.24 ± 0.018 | 0.209 ± 0.024 | 0.347 ± 0.025 | 0.239 ± 0.0077 | 0.212 ± 0.022 | 0.311 ± 0.0079 | 0.3339 ± 0.00096
WLVVGGVVLLVV | 0.246 ± 0.029 | 0.28548 ± 0.00015 | 0.213 ± 0.033 | 0.395 ± 0.009 | 0.175 ± 0.0046 | 0.197 ± 0.026 | 0.37 ± 0.0047 | 0.252 ± 0.0089
VFSRVLSVLLSA | 0.493 ± 0.011 | 0.514 ± 0.033 | 0.405 ± 0.029 | 0.5429 ± 0.0039 | 0.2377 ± 0.0015 | 0.282 ± 0.027 | 0.457 ± 0.024 | 0.386 ± 0.0071
CLLGMKSRTILV | 0.347 ± 0.029 | 0.33 ± 0.0047 | 0.289 ± 0.028 | 0.4262 ± 0.0024 | 0.236 ± 0.006 | 0.287 ± 0.03 | 0.397 ± 0.015 | 0.377 ± 0.014
DVHPLFYCIPVY | 0.0345 ± 0.018 | 0.0286 ± 0.016 | 0.101 ± 0.037 | 0.0568 ± 0.014 | 0.0881 ± 0.0095 | 0.101 ± 0.02 | 0.0474 ± 0.03 | 0.13922 ± 3.4e-05
SSVCLYWCCLFV | 0.522 ± 0.036 | 0.602 ± 0.013 | 0.443 ± 0.041 | 0.535 ± 0.016 | 0.407 ± 0.0018 | 0.426 ± 0.027 | 0.5166 ± 0.00058 | 0.432 ± 0.011
YFWWLWMSFWVG | 0.4935 ± 0.0028 | 0.53 ± 0.011 | 0.43 ± 0.023 | 0.59 ± 0.066 | 0.419 ± 0.022 | 0.403 ± 0.015 | 0.539 ± 0.013 | 0.4702 ± 0.0044
SSMSAVFRLQVC | 0.567 ± 0.0096 | 0.657 ± 0.0093 | 0.613 ± 0.017 | 0.662 ± 0.0092 | 0.228 ± 0.001 | 0.232 ± 0.015 | 0.299 ± 0.049 | 0.276 ± 0.017
PRFLRWLFSLLI | 0.739 ± 0.039 | 0.704 ± 0.012 | 0.705 ± 0.015 | 0.769 ± 0.044 | 0.597 ± 0.0095 | 0.592 ± 0.014 | 0.739 ± 0.041 | 0.515 ± 0.032
VVFFFKFFLLRL | 0.262 ± 0.0047 | 0.224 ± 0.025 | 0.318 ± 0.031 | 0.407 ± 0.033 | 0.362 ± 0.018 | 0.246 ± 0.035 | 0.325 ± 0.019 | 0.363 ± 0.026
SWWGDVVWFVVC | 0.555 ± 0.059 | 0.649 ± 0.015 | 0.501 ± 0.015 | 0.7029 ± 0.0032 | 0.176 ± 0.018 | 0.199 ± 0.03 | 0.381 ± 0.0062 | 0.282 ± 0.03
VSPATFLFYFFF | 0.62 ± 0.022 | 0.688 ± 0.011 | 0.544 ± 0.02 | 0.655 ± 0.0092 | 0.37374 ± 0.00014 | 0.396 ± 0.013 | 0.5607 ± 0.00097 | 0.497 ± 0.017
LLWALGLVLVEG | 0.152 ± 0.033 | 0.193 ± 0.026 | 0.217 ± 0.022 | 0.2919 ± 0.0014 | 0.171 ± 0.0078 | 0.204 ± 0.029 | 0.281 ± 0.015 | 0.377 ± 0.029
PSFSLLRSLTLI | 0.6084 ± 0.0024 | 0.7024 ± 0.0056 | 0.6712 ± 0.0021 | 0.699 ± 0.022 | 0.192 ± 0.02 | 0.205 ± 0.022 | 0.413 ± 0.027 | 0.284 ± 0.0073
VWYSCWSFLVLF | 0.444 ± 0.026 | 0.548 ± 0.011 | 0.416 ± 0.034 | 0.55122 ± 0.00022 | 0.2 ± 0.011 | 0.207 ± 0.024 | 0.362 ± 0.035 | 0.291 ± 0.024
WSFAPRLRCSYL | 0.927 ± 0.0095 | 0.925 ± 0.012 | 0.784 ± 0.029 | 0.883 ± 0.012 | 0.7642 ± 0.004 | 0.792 ± 0.048 | 0.878 ± 0.029 | 0.809 ± 0.055
